In US20050054041:

B1: KinI-3 construct E233F541 (protein)
chain: LGMREVRRGEINIITVEDKETLLVHEKKEAVDLTQYILQHVFYFDEVFGEACTNQDVYMKTTHPLIQHIFNGGNATCFAYGQTGAGKTYTMIGTHENPGLYALAAKDIFRQLEVSQPRKHLFVWISFYEIYCGQLYDLLNRRKRLFAREDSKHMVQIVGLQELQVDSVELLLEVILKGSKERSTGATGVNADSSRSHAVIQIQIKDSAKRTFGRISFIDLAGSERAADARDSDRQTKMEGAEINQSLLALKECIRALDQEHTHTPFRQSKLTQVLKDSFIGNAKTCMIANISPSHVATEHTLNTLRYAD
B2: KinI-3 construct D143L546 (protein)
chain: DDSQYHTKTGILNATAGDSYVQTEISTSLFSPNYLSAILGDCDIPIIQRISHVSGYNYGIPHSCIRQNTSEKQNPWTEMEKIRVCVRKRPLGMREVRRGEINIITVEDKETLLVHEKKEAVDLTQYILQHVFYFDEVFGEACTNQDVYMKTTHPLIQHIFNGGNATCFAYGQTGAGKTYTMIGTHENPGLYALAAKDIFRQLEVSQPRKHLFVWISFYEIYCGQLYDLLNRRKRLFAREDSKHMVQIVGLQELQVDSVELLLEVILKGSKERSTGATGVNADSSRSHAVIQIQIKDSAKRTFGRISFIDLAGSERAADARDSDRQTKMEGAEINQSLLALKECIRALDQEHTHTPFRQSKLTQVLKDSFIGNAKTCMIANISPSHVATEHTLNTLRYADRVKEL
B3: KinI-3 construct E166L546 (protein)
chain: EISTSLFSPNYLSAILGDCDIPIIQRISHVSGYNYGIPHSCIRQNTSEKQNPWTEMEKIRVCVRKRPLGMREVRRGEINIITVEDKETLLVHEKKEAVDLTQYILQHVFYFDEVFGEACTNQDVYMKTTHPLIQHIFNGGNATCFAYGQTGAGKTYTMIGTHENPGLYALAAKDIFRQLEVSQPRKHLFVWISFYEIYCGQLYDLLNRRKRLFAREDSKHMVQIVGLQELQVDSVELLLEVILKGSKERSTGATGVNADSSRSHAVIQIQIKDSAKRTFGRISFIDLAGSERAADARDSDRQTKMEGAEINQSLLALKECIRALDQEHTHTPFRQSKLTQVLKDSFIGNAKTCMIANISPSHVATEHTLNTLRYADRVKEL
B4: KinI-3 construct D183L546 (protein)
chain: MDCDIPIIQRISHVSGYNYGIPHSCIRQNTSEKQNPWTEMEKIRVCVRKRPLGMREVRRGEINIITVEDKETLLVHEKKEAVDLTQYILQHVFYFDEVFGEACTNQDVYMKTTHPLIQHIFNGGNATCFAYGQTGAGKTYTMIGTHENPGLYALAAKDIFRQLEVSQPRKHLFVWISFYEIYCGQLYDLLNRRKRLFAREDSKHMVQIVGLQELQVDSVELLLEVILKGSKERSTGATGVNADSSRSHAVIQIQIKDSAKRTFGRISFIDLAGSERAADARDSDRQTKMEGAEINQSLLALKECIRALDQEHTHTPFRQSKLTQVLKDSFIGNAKTCMIANISPSHVATEHTLNTLRYADRVKELLEHHHHHH
B5: KinI-3 construct V195L546 (protein)
chain: VSGYNYGIPHSCIRQNTSEKQNPWTEMEKIRVCVRKRPLGMREVRRGEINIITVEDKETLLVHEKKEAVDLTQYILQHVFYFDEVFGEACTNQDVYMKTTHPLIQHIFNGGNATCFAYGQTGAGKTYTMIGTHENPGLYALAAKDIFRQLEVSQPRKHLFVWISFYEIYCGQLYDLLNRRKRLFAREDSKHMVQIVGLQELQVDSVELLLEVILKGSKERSTGATGVNADSSRSHAVIQIQIKDSAKRTFGRISFIDLAGSERAADARDSDRQTKMEGAEINQSLLALKECIRALDQEHTHTPFRQSKLTQVLKDSFIGNAKTCMIANISPSHVATEHTLNTLRYADRVKEL
B6: KinI-3 construct V195S566 (protein)
chain: MVSGYNYGIPHSCIRQNTSEKQNPWTEMEKIRVCVRKRPLGMREVRRGEINIITVEDKETLLVHEKKEAVDLTQYILQHVFYFDEVFGEACTNQDVYMKTTHPLIQHIFNGGNATCFAYGQTGAGKTYTMIGTHENPGLYALAAKDIFRQLEVSQPRKHLFVWISFYEIYCGQLYDLLNRRKRLFAREDSKHMVQIVGLQELQVDSVELLLEVILKGSKERSTGATGVNADSSRSHAVIQIQIKDSAKRTFGRISFIDLAGSERAADARDSDRQTKMEGAEINQSLLALKECIRALDQEHTHTPFRQSKLTQVLKDSFIGNAKTCMIANISPSHVATEHTLNTLRYADRVKELKKGIKCCTSVTSRNRTSGNSLEHHHHHH
B7: KinI-3 construct E213/L546 (protein)
chain: MEKQNPWTEMEKIRVCVRKRPLGMREVRRGEINIITVEDKETLLVHEKKEAVDLTQYILQHVFYFDEVFGEACTNQDVYMKTTHPLIQHIFNGGNATCFAYGQTGAGKTYTMIGTHENPGLYALAAKDIFRQLEVSQPRKHLFVWISFYEIYCGQLYDLLNRRKRLFAREDSKHMVQIVGLQELQVDSVELLLEVILKGSKERSTGATGVNADSSRSHAVIQIQIKDSAKRTFGRISFIDLAGSERAADARDSDRQTKMEGAEINQSLLALKECIRALDQEHTHTPFRQSKLTQVLKDSFIGNAKTCMIANISPSHVATEHTLNTLRYADRVKELLEHHHHHH
B8: KinI-3 construct E213/S566 (protein)
chain: MEKQNPWTEMEKIRVCVRKRPLGMREVRRGEINIITVEDKETLLVHEKKEAVDLTQYILQHVFYFDEVFGEACTNQDVYMKTTHPLIQHIFNGGNATCFAYGQTGAGKTYTMIGTHENPGLYALAAKDIFRQLEVSQPRKHLFVWISFYEIYCGQLYDLLNRRKRLFAREDSKHMVQIVGLQELQVDSVELLLEVILKGSKERSTGATGVNADSSRSHAVIQIQIKDSAKRTFGRISFIDLAGSERAADARDSDRQTKMEGAEINQSLLALKECIRALDQEHTHTPFRQSKLTQVLKDSFIGNAKTCMIANISPSHVATEHTLNTLRYADRVKELKKGIKCCTSVTSRNRTSGNSLEHHHHHH

What follows are molecules tested on microtubules.

With “KinI-3 protein, bacterially expressed and purified (construct not stated)” as the molecule, how does the “microtubule depolymerization (tubulin in supernatant after centrifugation, SDS PAGE), with ATP” value read?
The value was “Track 3 shows an increase in tubulin in the supernatant that indicates depolymerization in the presence of ATP”.

What about the “microtubule depolymerization (tubulin in supernatant after centrifugation, SDS PAGE), without hydrolysable ATP” value of the same molecule?
The value was “No depolymerization was observed in the absence of ATP (track 4), in the presence of AMP-PNP (track 5) or in the presence of ADP (track 6)”.

Biological target: microtubules
Remark: another data set of the same source

Which MT depolymerization does the source give for B1 here?
Its MT depolymerization is “no”.

For B2, which MT depolymerization is on record?
Its MT depolymerization is “no”.

How did the MT depolymerization turn out when B3 was run?
The MT depolymerization was “no”.

B4 was tested. Which MT depolymerization did it give?
Its MT depolymerization is “yes”.

How did the MT depolymerization turn out when B5 was run?
The MT depolymerization was “no”.

Which MT depolymerization does the source give for B6 here?
The MT depolymerization was “yes”.

How did the MT depolymerization turn out when B7 was run?
Its MT depolymerization is “yes”.

For B8, which MT depolymerization is on record?
The MT depolymerization was “weak”.
